According to ChEMBL document CHEMBL3085760, “Novel polyamine analogues: from substrates towards potential inhibitors of monoamine oxidases” (Eur J Med Chem, 2013):

Key:
[1] = substrate: NCCCOCCCCOCCCNCc1cccs1; experiment: (§1) Activity at recombinant human VAP-1 assessed as hydrogen peroxide generation rate preincubated for 30 mins by Amplex Red assay
[2] = substrate: NCCCCCCCCCCCCNCc1cccs1; experiment: as §1
[3] = substrate: CN(CCCCCCCCCCCCN)Cc1ccccc1; experiment: as §1
[4] = substrate: NCCCCCCCCCCCCNCc1ccccc1; experiment: as §1
[5] = substrate: NCCCCCCCCNCCCNCc1cccs1; experiment: as §1
[6] = substrate: NCCCOCCCCOCCCNCc1cccs1; experiment: (§2) Activity at recombinant human MAO-B expressed in baculovirus infected BT1 cells assessed as hydrogen peroxide generation rate preincubated for 30 mins by Amplex Red assay
[7] = substrate: NCCCCCCCCCCCCNCc1cccs1; experiment: as §2
[8] = substrate: CN(CCCCCCCCCCCCN)Cc1ccccc1; experiment: as §2
[9] = substrate: NCCCCCCCCCCCCNCc1ccccc1; experiment: as §2
[10] = substrate: NCCCCCCCCCCCCNCc1cccs1; experiment: (§3) Activity at recombinant human MAO-A expressed in baculovirus infected BT1 cells assessed as hydrogen peroxide generation rate preincubated for 30 mins by Amplex Red assay
[11] = substrate: CN(CCCCCCCCCCCCN)Cc1ccccc1; experiment: as §3
[12] = substrate: NCCCCCCCCCCCCNCc1ccccc1; experiment: as §3

B1: Amine oxidase [copper-containing] 3 (Homo sapiens), Q16853 (protein)
chain: MNQKTILVLLILAVITIFALVCVLLVGRGGDGGEPSQLPHCPSVSPSAQPWTHPGQSQLFADLSREELTAVMRFLTQRLGPGLVDAAQARPSDNCVFSVELQLPPKAAALAHLDRGSPPPAREALAIVFFGRQPQPNVSELVVGPLPHPSYMRDVTVERHGGPLPYHRRPVLFQEYLDIDQMIFNRELPQASGLLHHCCFYKHRGRNLVTMTTAPRGLQSGDRATWFGLYYNISGAGFFLHHVGLELLVNHKALDPARWTIQKVFYQGRYYDSLAQLEAQFEAGLVNVVLIPDNGTGGSWSLKSPVPPGPAPPLQFYPQGPRFSVQGSRVASSLWTFSFGLGAFSGPRIFDVRFQGERLVYEISLQEALAIYGGNSPAAMTTRYVDGGFGMGKYTTPLTRGVDCPYLATYVDWHFLLESQAPKTIRDAFCVFEQNQGLPLRRHHSDLYSHYFGGLAETVLVVRSMSTLLNYDYVWDTVFHPSGAIEIRFYATGYISSAFLFGATGKYGNQVSEHTLGTVHTHSAHFKVDLDVAGLENWVWAEDMVFVPMAVPWSPEHQLQRLQVTRKLLEMEEQAAFLVGSATPRYLYLASNHSNKWGHPRGYRIQMLSFAGEPLPQNSSMARGFSWERYQLAVTQRKEEEPSSSSVFNQNDPWAPTVDFSDFINNETIAGKDLVAWVTAGFLHIPHAEDIPNTVTVGNGVGFFLRPYNFFDEDPSFYSADSIYFRGDQDAGACEVNPLACLPQAAACAPDLPAFSHGGFSHN
[1]
  Km: 350 µM
[2]
  Km: 11 µM
[3]
  Km: 9 µM
[4]
  Km: 5 µM
[5]
  Km: 1730 µM

B2: Amine oxidase [flavin-containing] B (Homo sapiens) (protein)
chain: MSNKCDVVVVGGGISGMAAAKLLHDSGLNVVVLEARDRVGGRTYTLRNQKVKYVDLGGSYVGPTQNRILRLAKELGLETYKVNEVERLIHHVKGKSYPFRGPFPPVWNPITYLDHNNFWRTMDDMGREIPSDAPWKAPLAEEWDNMTMKELLDKLCWTESAKQLATLFVNLCVTAETHEVSALWFLWYVKQCGGTTRIISTTNGGQERKFVGGSGQVSERIMDLLGDRVKLERPVIYIDQTRENVLVETLNHEMYEAKYVISAIPPTLGMKIHFNPPLPMMRNQMITRVPLGSVIKCIVYYKEPFWRKKDYCGTMIIDGEEAPVAYTLDDTKPEGNYAAIMGFILAHKARKLARLTKEERLKKLCELYAKVLGSLEALEPVHYEEKNWCEEQYSGGCYTTYFPPGILTQYGRVLRQPVDRIYFAGTETATHWSGYMEGAVEAGERAAREILHAMGKIPEDEIWQSEPESVDVPAQPITTTFLERHLPSVPGLLRLIGLTTIFSATALGFLAHKRGLLVRV
[6]
  Km: 401 µM
[7]
  Km: 18 µM
[8]
  Km: 12 µM
[9]
  Km: 50 µM

B3: Amine oxidase [flavin-containing] A (Homo sapiens) (protein)
chain: MENQEKASIAGHMFDVVVIGGGISGLSAAKLLTEYGVSVLVLEARDRVGGRTYTIRNEHVDYVDVGGAYVGPTQNRILRLSKELGIETYKVNVSERLVQYVKGKTYPFRGAFPPVWNPIAYLDYNNLWRTIDNMGKEIPTDAPWEAQHADKWDKMTMKELIDKICWTKTARRFAYLFVNINVTSEPHEVSALWFLWYVKQCGGTTRIFSVTNGGQERKFVGGSGQVSERIMDLLGDQVKLNHPVTHVDQSSDNIIIETLNHEHYECKYVINAIPPTLTAKIHFRPELPAERNQLIQRLPMGAVIKCMMYYKEAFWKKKDYCGCMIIEDEDAPISITLDDTKPDGSLPAIMGFILARKADRLAKLHKEIRKKKICELYAKVLGSQEALHPVHYEEKNWCEEQYSGGCYTAYFPPGIMTQYGRVIRQPVGRIFFAGTETATKWSGYMEGAVEAGERAAREVLNGLGKVTEKDIWVQEPESKDVPAVEITHTFWERNLPSVSGLLKIIGFSTSVTALGFVLYKYKLLPRS
[10]
  Km: 80 µM
[11]
  Km: 44 µM
[12]
  Km: 43 µM
